“And” between values parts separate entries of the source, which are not always exact repeats. Equal entries are not always repeated. Where no end group is shown, it is not given here. Cy5 = cyanine-5 fluorescent label
T1: GFP-tagged WD40 domain of yeast Cdh1 (aa 241–550), for SMOR (S. cerevisiae, UniProt P53197 241-550)
T1 construct: Cdh1, S. cerevisiae, WD40 domain, aa 241-550; also called Cdh1^WD40; GFP-tagged Cdh1^WD40; source: Sf9, baculovirus, purified (StrepTrap); not shown: 2xStrep-Tag II, N-terminal, kept; GFP, C-terminal, kept
T1 sequence (looked up): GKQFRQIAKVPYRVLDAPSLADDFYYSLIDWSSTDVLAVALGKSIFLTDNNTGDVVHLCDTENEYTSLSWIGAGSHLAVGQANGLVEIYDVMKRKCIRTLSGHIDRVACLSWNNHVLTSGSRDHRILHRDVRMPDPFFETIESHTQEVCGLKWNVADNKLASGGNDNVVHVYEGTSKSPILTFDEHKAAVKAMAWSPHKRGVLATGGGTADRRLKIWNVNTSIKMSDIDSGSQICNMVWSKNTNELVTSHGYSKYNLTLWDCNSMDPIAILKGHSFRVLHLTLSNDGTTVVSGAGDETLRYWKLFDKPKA

T2: WD40 domain of Cdh1 from Saccharomyces cerevisiae (aa 241–550), for anisotropy (S. cerevisiae, UniProt P53197 241-550)
T2 construct: Cdh1, S. cerevisiae, WD40 domain, aa 241-550; Cloned into pFastBac HT A; also called Cdh1^WD40; Cdh1 WD40; source: Sf9, baculovirus, purified (StrepTrap)
T2 sequence (looked up): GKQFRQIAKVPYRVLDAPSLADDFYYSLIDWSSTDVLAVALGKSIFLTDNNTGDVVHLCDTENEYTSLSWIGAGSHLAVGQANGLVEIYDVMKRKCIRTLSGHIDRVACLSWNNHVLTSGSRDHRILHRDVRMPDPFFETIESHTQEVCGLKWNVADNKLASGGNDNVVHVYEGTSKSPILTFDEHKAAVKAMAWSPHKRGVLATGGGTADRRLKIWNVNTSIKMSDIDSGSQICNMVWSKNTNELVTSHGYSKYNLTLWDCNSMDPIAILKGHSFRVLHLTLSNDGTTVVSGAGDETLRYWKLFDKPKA


Key:
Conditions in all cases: both partners purified
[1] = target: T3, GFP-tagged WD40 domain of human Cdh1 (aa 165–484), for SMOR (human, UniProt Q9UM11 165-484); assay: single-molecule off-rate (SMOR) assay, TIRF microscopy; target held on PEG/PEG-biotin glass by NeutrAvidin and biotinylated anti-Strep-Tag II antibody (tag on the activator); dye-labeled ligand (peptide no greater than 1 nM) in buffer C + BSA (20 mM HEPES pH 7.5, 150 mM KCl, 10% glycerol, 0.05% Tween-20, 1 mM DTT) with oxygen scavengers; mean dwell time from an exponential distribution; dwell times below 100 ms …
T3 construct: human Cdh1, WD40 domain, aa 165-484; also called hCdh1^WD40; human Cdh1^WD40; source: Sf9, baculovirus, purified (StrepTrap); not shown: 2xStrep-Tag II, N-terminal, kept; GFP, C-terminal, kept
T3 sequence (Q9UM11 165-484): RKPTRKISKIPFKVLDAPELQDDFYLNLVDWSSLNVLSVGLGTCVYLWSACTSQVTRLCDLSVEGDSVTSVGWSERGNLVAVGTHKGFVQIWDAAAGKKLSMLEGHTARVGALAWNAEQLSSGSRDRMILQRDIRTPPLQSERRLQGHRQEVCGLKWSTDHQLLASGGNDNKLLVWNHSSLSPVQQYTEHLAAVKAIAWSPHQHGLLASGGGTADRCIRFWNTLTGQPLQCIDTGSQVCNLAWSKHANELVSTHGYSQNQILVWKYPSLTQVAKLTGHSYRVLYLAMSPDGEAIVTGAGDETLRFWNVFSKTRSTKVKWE

[2] = target: T4, Cdh1-activated yeast APC/C (S. cerevisiae | S. cerevisiae …, UniProt P53197 1-566; P53886 1-1748; P09798 1-840; P38042 1-758; P53068 1-250); assay: as above
T4 construct: Apc1 subunit of the APC/C, from yeast strain NHY13; Cdc16 subunit of the APC/C (Cdc16-TAP); Cdc27 subunit of the APC/C; Apc10/Doc1 subunit of the APC/C; only Apc1, Cdc16, Cdc27 and Apc10 are named; the yeast strain lacks endogenous Cdh1; TEV cleavage of the TAP tag may leave part of the tag on Cdc16; also called APC/C^Cdh1; not shown: 2xStrep-Tag II, N-terminal, kept; GFP, C-terminal, kept; …

[3] = target: T5, Cdc20-activated yeast APC/C (S. cerevisiae | S. cerevisiae …, UniProt P26309 1-610; P53886 1-1748; P09798 1-840; P38042 1-758; P53068 1-250); assay: as above
T5 construct: Apc1 subunit of the APC/C, from yeast strain NHY13; Cdc16 subunit of the APC/C (Cdc16-TAP); Cdc27 subunit of the APC/C; Apc10/Doc1 subunit of the APC/C; only Apc1, Cdc16, Cdc27 and Apc10 are named; TEV cleavage of the TAP tag may leave part of the tag on Cdc16; also called APC/C^Cdc20; not shown: 2xStrep-Tag II, N-terminal, kept; GFP, C-terminal, kept; copies: + + + + + + + + + + + + +

[4] = target: T6, GFP-tagged WD40 domain of human Cdc20 (aa 162–484), for SMOR (human, UniProt Q12834 162-484); assay: as above
T6 construct: human Cdc20, WD40 domain, aa 162-484; also called hCdc20^WD40; human Cdc20^WD40; source: Sf9, baculovirus, purified (StrepTrap); not shown: 2xStrep-Tag II, N-terminal, kept; GFP, C-terminal, kept
T6 sequence (Q12834 162-484): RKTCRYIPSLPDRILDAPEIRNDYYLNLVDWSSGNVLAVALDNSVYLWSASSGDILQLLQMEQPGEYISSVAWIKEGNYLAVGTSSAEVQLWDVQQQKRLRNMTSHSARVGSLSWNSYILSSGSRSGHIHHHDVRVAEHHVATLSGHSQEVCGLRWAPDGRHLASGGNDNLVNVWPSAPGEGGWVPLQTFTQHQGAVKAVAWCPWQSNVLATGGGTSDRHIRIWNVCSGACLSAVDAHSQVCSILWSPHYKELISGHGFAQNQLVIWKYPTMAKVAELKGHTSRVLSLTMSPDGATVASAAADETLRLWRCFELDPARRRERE

[5] = target: T1, GFP-tagged WD40 domain of yeast Cdh1 …; assay: as above
[6] = target: T2, WD40 domain of Cdh1 from Saccharomyces …; assay: fluorescence polarisation; fluorescence anisotropy as a1, 10 nM labeled Hsl1 degron peptide with 100 µM unlabeled peptide of the other Hsl1 degron present
[7] = target: T2, WD40 domain of Cdh1 from Saccharomyces …; assay: fluorescence polarisation; fluorescence anisotropy; 10 nM C-terminally Cy5-labeled peptide mixed with increasing concentrations of purified protein (Cdh1 WD40 up to 30.6 µM); wash buffer B (50 mM Tris-HCl pH 8, 150 mM KCl, 0.5 mM EDTA, 1 mM DTT, 10% glycerol); 25 °C; one-site equilibrium fit
[8] = target: T3, GFP-tagged WD40 domain of human Cdh1 …; assay: fluorescence polarisation + other: single-molecule off-rate (SMOR) assay; inferred constants: kon from the KD of anisotropy and the koff of SMOR; KD for APC/C^Cdh1 from the dwell time with the kon of Cdh1 alone assumed
[9] = target: T1, GFP-tagged WD40 domain of yeast Cdh1 …; assay: as above
[10] = target: T4, Cdh1-activated yeast APC/C; assay: as above
[11] = target: T1, GFP-tagged WD40 domain of yeast Cdh1 …; assay: single-molecule off-rate (SMOR) assay, TIRF microscopy; target held on PEG/PEG-biotin glass by NeutrAvidin and biotinylated anti-Strep-Tag II antibody (tag on the activator); dye-labeled ligand (peptide no greater than 1 nM) in buffer C + BSA (20 mM HEPES pH 7.5, 150 mM KCl, 10% glycerol, 0.05% Tween-20, 1 mM DTT) with oxygen scavengers; mean dwell time from an exponential distribution; dwell times below 100 ms …; remark: listed apart in the source
[12] = target: T7, WD40 domain of human Cdh1 (aa 165–484), for anisotropy (human, UniProt Q9UM11 165-484); assay: fluorescence polarisation; fluorescence anisotropy; 10 nM C-terminally Cy5-labeled peptide mixed with increasing concentrations of purified protein (Cdh1 WD40 up to 30.6 µM); wash buffer B (50 mM Tris-HCl pH 8, 150 mM KCl, 0.5 mM EDTA, 1 mM DTT, 10% glycerol); 25 °C; one-site equilibrium fit
T7 construct: human Cdh1, WD40 domain, aa 165-484; Cloned into pFastBac HT A; also called human Cdh1 WD40; source: Sf9, baculovirus, purified (StrepTrap)
T7 sequence (Q9UM11 165-484): as the sequence (Q9UM11 165-484) above

[13] = target: T8, WD40 domain of human Cdc20 (aa 162–484), for anisotropy (human, UniProt Q12834 162-484); assay: as above
T8 construct: human Cdc20, WD40 domain, aa 162-484; Cloned into pFastBac HT A; also called human Cdc20 WD40; source: Sf9, baculovirus, purified (StrepTrap)
T8 sequence (Q12834 162-484): as the sequence (Q12834 162-484) above

Binder | mean dwell time [1] [s] | mean dwell time [2] [s] | mean dwell time [3] [s] | mean dwell time [5] [s] | Kd [7] | further results
LIYVDKENGEPGTRK-Cy5 [Cy5-labeled hSecurin KEN box peptide] | 0.174 |  |  |  |  | 
QDSKPRRALTDVPVNNNPLSQK-Cy5 [Cy5-labeled Clb5 D box peptide] |  | 0.159 | 0.207 |  |  | mean dwell time [4]: 0.054 s
GVSTNKENEGPEYPTKIEK-Cy5 [Cy5-labeled Hsl1 KEN peptide] | 1.48 | 0.185 |  | 0.166 | 14 µM and 12 µM | fold improvement of affinity with saturating unlabeled D box peptide, against no D box peptide [6]: ~4 fold
EQKPKRAALSDITNSFNKMNK-Cy5 [Cy5-labeled Hsl1 D box peptide] | 4.52 | 35.3 | 0.412 | 0.36 | 3.5 µM and 4 µM | mean dwell time [4]: 1.08 s; kon [8]: 100000 M⁻¹ s⁻¹; kon [9]: 800000 M⁻¹ s⁻¹; Kd [10]: 0.036 µM; koff [11]: 2.8 s⁻¹; fold improvement of affinity with unlabeled Hsl1 KEN peptide, against no KEN peptide [6]: ~3 fold; Kd [12]: ~2 µM; Kd [13]: ~2 µM
PANEDKENNIVYTGK-Cy5 [Cy5-labeled ySecurin KEN peptide] | 0.869 |  |  |  | 26 µM and 40 µM | 
Hsl1 fragment (amino acids 667–872) with C-terminal HaloTag, mutations in the D box (domain or fragment, JF549 or JF646 dye covalently bound to the HaloTag) QNSASKRSLYSLQSISKRSLNLNDLLVFDDPLPSKKPASENVNKSEPHSLESDSDFEILCDQILFGNALDRILEEEEDNEKERDTQRQRQNDTKSSADTFTISGVSTNKENEGPEYPTKIEKNQFNMSYKPSENMSGLSSFPIFEKENTLSSSYLEEQKPKAAAASDITASFNKMNKQEGMRIEKKIQREQLQKKNDRPSPLKPIQ |  | 0.374 |  | 0.421 |  | 
AQQQGRLPLAAKDNNRSKSFIK-Cy5 [Cy5-labeled ySecurin D box peptide] |  | 0.132 | 1.87 |  |  | 
LPKATRKALGTVNRATEKSVKK-Cy5 [Cy5-labeled AurKB D box peptide] | 0.202 |  |  |  |  | 
